Measured values taken from patent publication US20210340211A1 (UNIVERSITY OF COPENHAGEN, published 2021).
Blank lines part the entries; values can stand above or below the binder they belong to. Ends that are not written are not given here.

What was measured:
human GIP receptor [1] = target: T1, human GIP receptor (human, UniProt P48546 22-466); test: cell-based or functional assay
T1 sequence (looked up): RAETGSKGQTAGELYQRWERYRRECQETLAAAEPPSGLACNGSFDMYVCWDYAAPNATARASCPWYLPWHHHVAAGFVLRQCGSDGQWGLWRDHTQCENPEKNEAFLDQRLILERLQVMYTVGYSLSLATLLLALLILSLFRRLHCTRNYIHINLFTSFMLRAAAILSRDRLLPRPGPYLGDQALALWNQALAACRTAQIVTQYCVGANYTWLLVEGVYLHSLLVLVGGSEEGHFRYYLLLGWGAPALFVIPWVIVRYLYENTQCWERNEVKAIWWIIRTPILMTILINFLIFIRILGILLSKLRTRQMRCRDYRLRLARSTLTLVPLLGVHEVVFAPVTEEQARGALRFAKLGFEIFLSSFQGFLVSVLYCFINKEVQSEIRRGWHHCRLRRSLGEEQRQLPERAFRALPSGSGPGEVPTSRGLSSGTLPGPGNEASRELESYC

human GIP receptor [2] = target: T1, human GIP receptor; test: competition binding vs 125I-GIP(1-42), COS-7 cells transfected with human GIP receptor
Description: (§1) Nonspecific binding was determined as the binding of radioligand to untransfected cells. All determinations were made in duplicates, and all experiments repeated at least three times. The samples were analyzed for radioactivity using a Wallac Wizard 1470 Gamma Counter (GMI Inc., Minnesota, USA). The number “n” refers to individual experiments with separate transfections although from same cell line.
(§2) Statistical analyses (unpaired t-tests) of two parameters were also performed with GraphPad Prism 6.0. […] Kd is the dissociation constant determined by homologous receptor binding.

human GIP receptor [3] = target: T1, human GIP receptor; test: cell-based or functional assay; remark: listed apart in the source
human GIP receptor [4] = target: T1, human GIP receptor; test: competition binding vs 125I-GIP(1-30)NH2, COS-7 cells transfected with human GIP receptor
Description: as §1, §2

human GIP receptor [5] = target: T1, human GIP receptor; test: competition binding vs 125I-GIP(3-30)NH2, COS-7 cells transfected with human GIP receptor
Description: as §1, §2

human GIP receptor [6] = target: T1, human GIP receptor; test: homologous competition binding vs 125I-GIP(2-30)NH2, COS-7 cells transfected with human GIP receptor
Description: as §1

human GIP receptor [7] = target: T1, human GIP receptor; test: competition binding vs 125I-GIP(2-30)NH2, COS-7 cells transfected with human GIP receptor
Description: as §1, §2

human GIP receptor [8] = target: T1, human GIP receptor; test: homologous competition binding vs 125I-GIP(3-30)NH2, COS-7 cells transfected with human GIP receptor
Description: as §1

human GIP receptor [9] = target: T1, human GIP receptor; test: cell-based or functional assay; remark: listed apart in the source
human GIP receptor [10] = target: T1, human GIP receptor; test: competition binding vs 125I-hGIP, COS-7 cells transfected with hGIPR
Description: COS-7 cells were seeded in clear 96-well plates the day after transfection using a number of cells/well that obtained 5-10% specific binding of the added radioactive ligand. […] After incubation, the cells were washed twice in ice-cold binding buffer and lysed using 200 mM NaOH with 1% SDS for 30 min. Nonspecific binding was determined as the binding of tracer to untransfected cells.

- IC50 (inhibition of GIP(1-42) induced cAMP accumulation) (human GIP receptor [1]): 133 nM
- logIC50 (inhibition of GIP(1-42) induced cAMP accumulation) (human GIP receptor [1]): -6.88
- Ki (human GIP receptor [2]): 79 nM
- fold change of GIP(1-30)NH2 affinity (human GIP receptor [2]): 89 fold
- logIC (human GIP receptor [2]): -7.1
B1: GIP(8-30)NH2 (peptide)
peptide: SDYSIAMDKIHQQDFVNWLLAQK-NH2
notes: also called human GIP(8-30)NH2; hGIP(8-30)

- IC50 (inhibition of GIP(1-42) induced cAMP accumulation) (human GIP receptor [1]): 108 nM
- logIC50 (inhibition of GIP(1-42) induced cAMP accumulation) (human GIP receptor [1]): -6.97
- Ki (human GIP receptor [2]): 21.5 nM
- fold change of GIP(1-30)NH2 affinity (human GIP receptor [2]): 24 fold
- logIC (human GIP receptor [2]): -7.67
B2: GIP(4-30)NH2 (peptide)
peptide: GTFISDYSIAMDKIHQQDFVNWLLAQK-NH2
notes: also called human GIP(4-30)NH2; hGIP4-30

- fold lower potency than GIP(1-30)NH2 (cAMP accumulation) (human GIP receptor [3]): > 3000 fold
- log EC50 (cAMP accumulation) (human GIP receptor [3]): -8.43
- potency, EC50 (cAMP accumulation) (human GIP receptor [3]): 3.7 nM
- IC50 (inhibition of GIP(1-42) induced cAMP accumulation) (human GIP receptor [1]): 21.7 nM
- logIC50 (inhibition of GIP(1-42) induced cAMP accumulation) (human GIP receptor [1]): -7.66
- Ki (human GIP receptor [2]): 14.3 nM
- fold change of GIP(1-30)NH2 affinity (human GIP receptor [2]): 16 fold
- logIC (human GIP receptor [2]): -7.85
- IC50 (human GIP receptor [4]): 26 nM
- fold change GIP(1-30)NH2 (human GIP receptor [4]): 84.3 fold
- log (IC50) (human GIP receptor [4]): -7.59
- IC50 (human GIP receptor [5]): 7.7 nM
- fold change GIP(1-30)NH2 (human GIP receptor [5]): 4.6 fold
- log (IC50) (human GIP receptor [5]): -8.11
- IC50 (human GIP receptor [6]): 2.7 nM
- fold change GIP(1-30)NH2 (human GIP receptor [6]): 10.5 fold
- log (IC50) (human GIP receptor [6]): -8.57
B3: GIP(2-30)NH2 (peptide)
peptide: AEGTFISDYSIAMDKIHQQDFVNWLLAQK-NH2
notes: also called human GIP(2-30)NH2; hGIP(2-30)

- fold shift in the dose-response curve of human GIP(1-42) by 1 µM antagonist (human GIP receptor [3]): 281 fold
- IC50 (inhibition of GIP(1-42) induced cAMP accumulation) (human GIP receptor [1]): 11.8 nM
- logIC50 (inhibition of GIP(1-42) induced cAMP accumulation) (human GIP receptor [1]): -7.93
- Ki (human GIP receptor [2]): 2.3 nM
- fold change of GIP(1-30)NH2 affinity (human GIP receptor [2]): 2.6 fold
- fold decrease in affinity compared to GIP(1-30)NH2 (human GIP receptor [2]): 2.3 fold
- logIC (human GIP receptor [2]): -8.63
- IC50 (human GIP receptor [4]): 4.4 nM
- fold change GIP(1-30)NH2 (human GIP receptor [4]): 14.5 fold
- log (IC50) (human GIP receptor [4]): -8.35
- IC50 (human GIP receptor [7]): 0.76 nM
- fold change GIP(1-30)NH2 (human GIP receptor [7]): 1.6 fold
- log (IC50) (human GIP receptor [7]): -9.12
- IC50 (human GIP receptor [8]): 3.4 nM
- fold change GIP(1-30)NH2 (human GIP receptor [8]): 2 fold
- log (IC50) (human GIP receptor [8]): -8.47
B4: GIP(3-30)NH2 (peptide)
peptide: EGTFISDYSIAMDKIHQQDFVNWLLAQK-NH2
notes: also called human GIP(3-30)NH2; hGIP(3-30)NH2

- Ki (Schild plot, cAMP accumulation) (human GIP receptor [9]): 7.9 nM
B5: hGIP(3-30)D15EH18A (peptide)
peptide: EGTFISDYSIAMEKIAQQDFVNWLLAQK

- IC50 (inhibition of GIP(1-42) induced cAMP accumulation) (human GIP receptor [1]): 342 nM
- logIC50 (inhibition of GIP(1-42) induced cAMP accumulation) (human GIP receptor [1]): -6.47
- Ki (human GIP receptor [2]): 347 nM
- fold change of GIP(1-30)NH2 affinity (human GIP receptor [2]): 391 fold
- fold decrease in affinity compared to GIP(1-30)NH2 (human GIP receptor [2]): 347 fold
- fold lower affinity compared to GIP(1-30)NH2 (human GIP receptor [2]): > 300 fold
- logIC (human GIP receptor [2]): -6.46
- IC50 (human GIP receptor [4]): 1060 nM
- fold change GIP(1-30)NH2 (human GIP receptor [4]): 3500 fold
- log (IC50) (human GIP receptor [4]): -5.97
- IC50 (human GIP receptor [7]): 340 nM
- fold change GIP(1-30)NH2 (human GIP receptor [7]): 707 fold
- log (IC50) (human GIP receptor [7]): -6.47
- IC50 (human GIP receptor [5]): 370 nM
- fold change GIP(1-30)NH2 (human GIP receptor [5]): 223 fold
- log (IC50) (human GIP receptor [5]): -6.43
B6: GIP(6-30)NH2 (peptide)
peptide: FISDYSIAMDKIHQQDFVNWLLAQK-NH2
notes: also called human GIP(6-30)NH2; hGIP(6-30)

- logIC (human GIP receptor [2]): -7.58
B7: GIP(7-30)NH2 (peptide)
peptide: ISDYSIAMDKIHQQDFVNWLLAQK-NH2
notes: also called human GIP(7-30)NH2; hGIP(7-30)

- Ki (Schild plot, cAMP accumulation) (human GIP receptor [9]): 15 nM
- IC50 (human GIP receptor [10]): 16 nM
B8: hGIP(3-30) (peptide)
peptide: EGTFISDYSIAMDKIHQQDFVNWLLAQK
notes: also called human GIP3-30

- Ki (Schild plot, cAMP accumulation) (human GIP receptor [9]): 37 nM
- IC50 (human GIP receptor [10]): 7.8 nM
B9: hGIP(3-30)H18K (peptide)
peptide: EGTFISDYSIAMDKIKQQDFVNWLLAQK
notes: Synthetic variant of hGIP(3-30)

- Ki (Schild plot, cAMP accumulation) (human GIP receptor [9]): 35 nM
- IC50 (human GIP receptor [10]): 2 nM
B10: hGIP(3-30)H18A (peptide)
peptide: EGTFISDYSIAMDKIAQQDFVNWLLAQK
notes: as for B9

- right-shift of antagonistic potency compared to GIP(3-30)NH2 (human GIP receptor [3]): 38 fold
- IC50 (inhibition of GIP(1-42) induced cAMP accumulation) (human GIP receptor [1]): 450 nM
- logIC50 (inhibition of GIP(1-42) induced cAMP accumulation) (human GIP receptor [1]): -6.35
- Ki (human GIP receptor [2]): 307 nM
- fold change of GIP(1-30)NH2 affinity (human GIP receptor [2]): 345 fold
- fold lower affinity compared to GIP(1-30)NH2 (human GIP receptor [2]): > 300 fold
- logIC (human GIP receptor [2]): -6.51
B11: GIP(9-30)NH2 (peptide)
peptide: DYSIAMDKIHQQDFVNWLLAQK-NH2
notes: also called human GIP(9-30)NH2; hGIP(9-30)

- Ki (Schild plot, cAMP accumulation) (human GIP receptor [9]): 15 nM
B12: hGIP(3-30)K16AH18A (peptide)
peptide: EGTFISDYSIAMDAIAQQDFVNWLLAQK

- IC50 (inhibition of GIP(1-42) induced cAMP accumulation) (human GIP receptor [1]): 11.9 nM
- logIC50 (inhibition of GIP(1-42) induced cAMP accumulation) (human GIP receptor [1]): -7.92
- Ki (human GIP receptor [2]): 5.9 nM
- fold change of GIP(1-30)NH2 affinity (human GIP receptor [2]): 6.6 fold
- logIC (human GIP receptor [2]): -8.23
B13: GIP(5-30)NH2 (peptide)
peptide: TFISDYSIAMDKIHQQDFVNWLLAQK-NH2
notes: also called human GIP(5-30)NH2; hGIP5-30

- fold lower antagonistic potency than human GIP(3-30)NH2 (cAMP accumulation) (human GIP receptor [3]): 26 fold
- fold shift in the dose-response curve of human GIP(1-42) by 1 µM antagonist (human GIP receptor [3]): 7.3 fold
B14: human GIP(3-42) (peptide)
peptide: EGTFISDYSIAMDKIHQQDFVNWLLAQKGKKNDWKHNITQ
